In patent US20230272055A1 (Incyte, published 2023):

B1: anti-mutCALR antibody clone 44 (antibody, human IgG1, lambda, V domains shown)
VH: EVQLVQSGAEVKKPGSSVKVSCKASGGTFSSYAISWVRQAPGQGLEWMGGIIPIFGTANYAQKFQGRVTITADESTSTAYMELSSLRSEDTAVYYCASSPLRGSGWYWHYYYGMDVWGQGTTVTVSS
VL: SYVLTQPPSVSAAPGKTARISCGGNNIRSKSVHWYQQKAGQAPVLVIYQDSKRPSGIPERFSGSNSGNTATLTISGTQAMDEADYYCQAWDSNTVVFGGGTKLTVLG
B2: anti-mutCALR antibody clone 47 (antibody, human IgG1, lambda, V domains shown)
VH: EVQLVQSGAEVKKPGSSVKVSCKASGGTFSSYAISWVRQAPGQGLEWMGGIIPIFGTANYAQKFQGRVTITADESTSTAYMELSSLRSEDTAVYYCASSPLRGSGWYWHYYYGMDVWGQGTTVTVSS
VL: SYELTQPPSVSVAPGKTARITCGGNKIGTKSVHWYQQKPGQAPVLVIYRDSNRPSGIPERFSGSNSGNTATLTISRAQAGDEADYYCQVWDSSTVVFGGGTKLTVLG
B3: anti-mutCALR antibody clone 46 (antibody, human IgG1, lambda, V domains shown)
VH: QVQLVQSGAEVKKPGSSVKVSCKASGGTFSSYAISWVRQAPGQGLEWMGGIIPIFGTANYAQKFQGRVTITADESTSTAYMELSSLRSEDTAVYYCASSPLRGSGWYWHYYYGMDVWGQGTTVTVSS
VL: SYELTQPPSVSVAPGKTARITCGGNNIRSKSVHWYQQKPGQAPVLVVYQDSKRPSGIPERFSGSNSGNTATLTISGTQAMDEADYYCQVWDSSTAVFGGGTKLTVLG
B4: anti-mutCALR antibody clone 53 (antibody, human IgG1, lambda, V domains shown)
VH: QVQLVQSGAEVKKPGASVKVSCKVSGYTLTELSMHWVRQAPGKGLEWMGGFDPEDGETIYAQKFQGRVTMTEDTSTDTAYMELSSLRSEDTAVYYCATDIQGLAEFDYWGQGTLVTVSS
VL: QSALTQPRSVSGSPGQSVTISCTGTNTDVGAYIDVSWYQQHPGKAPKLIIYDVSKWPSGVPDRFSGSKSGNTASLTISGLQAEDEADYYCCSYAGNHSFSFGGGTKVTVLG
notes: human IgG1
B5: anti-mutCALR antibody clone 1 (antibody, human IgG1, lambda, V domains shown)
VH: EVQLVQSGAEVKKPGASVKVSCKVSGYTLTELSMQWVRQAPGKGLEWMGGFDPDDGETMYAEKFQGRLTVTEDTSTDTVYMELRSLTSEDTALYFCATSPGYDFFDYWGQGTLVTVSS
VL: SYVLTQPPSVSVAPGKTARITCGGNYIGSKSVHWYQQKPGQAPVLVVYDDGDRPSGIPARFSGSNSGNTATLTISRVEAGDEADYYCQVWDSISDHVVFGGGTKLTVLG
notes: human IgG1
B6: anti-mutCALR antibody clone 7 (antibody, human IgG1, lambda, V domains shown)
VH: EVQLVQSGAEVKKPGASVKVSCKVSGYTLTELSMQWVRQAPGKGLEWMGGFDPDDGETMYAEKFQGRLTVTEDTSTDTVYMELRSLTSEDTALYFCATSPGYDFFDYWGQGTLVTVSS
VL: SYVLTQPPSVSVAPGQTASITCVGTNFGSKNVHWYQQRPGQAPVLVVYDDSDRPSGIPERFSGSNSGNTATLTINRVEAGDEADYYCQVWDSSNDLLIFGGGTKLTVLG
notes: human IgG1
B7: anti-mutCALR antibody clone 4 (antibody, human IgG1, lambda, V domains shown)
VH: EVQLVQSGAEVKKPGASVKVSCKVSGYTLTELSMQWVRQAPGKGLEWMGGFDPDDGETMYAEKFQGRLTVTEDTSTDTVYMELRSLTSEDTALYFCATSPGYDFFDYWGQGTLVTVSS
VL: SYVLTQPPSVSVAPGQTARITCGGNNIGSKSVHWYQQKPGQAPVLVVYDDSDRPSGIPERFSGSNSGNTATLTINRVEAGDEADYYCQVWDSSNDLLIFGGGTKLTVLG
notes: human IgG1
B8: anti-mutCALR antibody clone 2 (antibody, human IgG1, lambda, V domains shown)
VH: EVQLVQSGAEVKKPGASVKVSCKVSGYTLTELSMQWVRQAPGKGLEWMGGFDPDDGETMYAEKFQGRLTVTEDTSTDTVYMELRSLTSEDTALYFCATSPGYDFFDYWGQGTLVTVSS
VL: SYELTQPPSVSVAPGKTARITCGGDNIGSKSVHWYQQKPGQAPVLVVYDDSDRPSGIPERFSGSNSGNTATLTISRVEAGDEADYYCQVWDSSIDHLIFGGGTKVTVLG
notes: human IgG1
B9: anti-mutCALR antibody clone 8 (antibody, human IgG1, lambda, V domains shown)
VH: QVQLVQSGAEVKKPGSSVKVSCKVSGYTLTELSMQWVRQAPGKGLEWMGGFDPDDGETMYAEKFQGRLTVTEDTSTDTVYMELRSLTSEDTALYFCATSPGYDFFDYWGQGTLVTVSS
VL: SYELTQPPSVSVAPGQTARITCGGNNIGSKSVHWYQQKPGQAPVLVVYDDSDRPSGIPERFSGSNSGRTATLTISRVEAGDEADYHCQVWDSSSDHLVFGGGTKLTVLG
notes: human IgG1
B10: anti-mutCALR antibody clone 5 (antibody, human IgG1, lambda, V domains shown)
VH: EVQLVQSGAEVKKPGASVKVSCKVSGYTLTELSMQWVRQAPGKGLEWMGGFDPDDGETMYAEKFQGRLTVTEDTSTDTVYMELRSLTSEDTALYFCATSPGYDFFDYWGQGTLVTVSS
VL: SYVLTQPPSVSVAPGQTASITCVGTNFGSKNVHWYQQRPGQAPVLVVYDDSDRPSGIPERFSGSNSGNTATLTISRVEAGDEADYYCQVWDSSSDHLIFGGGTKLTVLG
notes: human IgG1
B11: anti-mutCALR antibody clone 3 (antibody, human IgG1, lambda, V domains shown)
VH: EVQLVQSGAEVKKPGASVKVSCKVSGYTLTELSMQWVRQAPGKGLEWMGGFDPDDGETMYAERFQGRLTVTEDTSTDTVYMELRSLTSEDTALYFCATSPGYDFFDYWGQGTLVTVSS
VL: SYVLTQPPSVSVAPGQTARITCGGNNIGSKSVHWYQQKPGQAPVLVVYDDSDRPSGIPERFSGSNSGNTATLTINRVEAGDEADYYCQVWDSSNDLLIFGGGTKLTVLG
notes: human IgG1
B12: anti-mutCALR antibody clone 6 (antibody, human IgG1, lambda)
heavy: not shown
light: QSALTQPASVSGSPGQSITISCTGTSSDVGGYNYVSWYQQHPGKAPKLMIYEVSNRPSGVSNRFSGSNSGNTATLTINRVEAGDEADYYCQVWDSSNDLLIFGGGTKLTVLGQPKAAPSVTLFPPSSEELQANKATLVCLISDFYPGAVTVAWKADSSPVKAGVETTTPSKQSNNKYAASSYLSLTPEQWKSHRSYSCQVTHEGSTVEKTVAPTECS
notes: human IgG1
B13: anti-mutCALR antibody clone 32 (antibody, human IgG1, lambda, V domains shown)
VH: QVQLVQSGAEVKKPGATVKISCKVSGYSFTDYFIHWVQQAPGKGLAWVGLVDPEDGETIYAEKFQGRVTITADTSTDTAYMELSSLRSEDTAVYYCATPGGILTDPDAFDIWGQGTMVTVSS
VL: QSALTQPASVSGSPGQSITISCTGTSSDVGGYNYVSWYQQHPGKAPKLMIYEVSNRPSGVSNRFSGSKSGNTASLTISGLQAEDEADYYCSSYTSSSTPYVFGTGTKVTVLG
notes: human IgG1
B14: anti-mutCALR antibody clone 36 (antibody, human IgG1, lambda, V domains shown)
VH: QVQLVQSGAEVKKPGATVKISCKVSGYSFTDYFIHWVQQAPGKGLAWVGLVDPEDGETIYAEKFQGRVTITADTSTDTAYMELSSLRSEDTAVYYCATPGGILTDPDAFDIWGQGTMVTVSS
VL: QSALTQPRSVSGSPGQSVTISCAGTGSDVGGYNYVSWYQHHPGKAPKLMIYDVNKRPSGVPDRFSGSKSGNTASLTISGLQAEDEADYYCSSYTSSSTFYVFGTGTKVTVLG
notes: human IgG1

Experiments:
[1] = biological target: T1, human Type 1 mutCALR on Ba/F3 cells expressing MPL and Type 1 mutCALR (human); assay: cell-based or functional assay
T1 chain: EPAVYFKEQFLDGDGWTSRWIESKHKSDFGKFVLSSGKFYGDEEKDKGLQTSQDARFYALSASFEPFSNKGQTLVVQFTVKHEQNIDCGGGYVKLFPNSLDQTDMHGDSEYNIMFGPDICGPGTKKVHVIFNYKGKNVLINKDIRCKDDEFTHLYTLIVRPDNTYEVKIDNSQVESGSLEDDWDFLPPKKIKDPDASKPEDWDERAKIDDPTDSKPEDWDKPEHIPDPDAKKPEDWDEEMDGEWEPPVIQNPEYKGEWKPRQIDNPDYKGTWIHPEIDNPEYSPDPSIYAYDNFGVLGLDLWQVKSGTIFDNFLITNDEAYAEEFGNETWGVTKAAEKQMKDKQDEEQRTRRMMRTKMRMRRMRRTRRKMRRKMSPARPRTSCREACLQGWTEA

[2] = biological target: T2, Recombinant MBP-mutCALR Type 1 fusion protein (human); assay: SPR, IgG captured, 1:1 fit, Exp. 1
T2 construct: custom made at Cepter; also called recombinant mutCALR protein
Method: Experiment 1: Recombinant MBP-mutCALR Type 1 fusion protein was custom made at Cepter (cepterbiopartners.com). Data for the interaction of antibodies with recombinant MBP-mutCALR Type 1 fusion protein were collected at 25° C. on a Biacore 8K instrument (Cytiva, Marlborough, Mass.), and all reagents were obtained from Cytiva unless otherwise specified. The experiments were conducted using Tris-buffered saline (pH 7.2), 0.005% Surfactant P20, 1 mM CaCl₂) as running buffer. To prepare the capture surfaces, anti-human IgG (Fc) antibodies (Product #29234600) was amine-coupled onto a CM4 chip (Product #BR100534) under standard conditions using an Amine Coupling Kit (Product #BR100050). […] The kinetics parameters were obtained by applying 1:1 binding model to fit the data from multiple-cycle injection experiments using Biacore Insight Evaluation software.

[3] = biological target: T2, Recombinant MBP-mutCALR Type 1 fusion …; assay: SPR, IgG captured, 1:1 fit, Exp. 2
Method in brief: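 Antibodies captured via amine-coupled anti-human IgG (Fc) on a CM4 chip; recombinant MBP-mutCALR Type 1 fusion protein as analyte. Run at 25 °C in Tris-buffered saline pH 7.2, 0.005% P20, 1 mM CaCl₂. Multiple-cycle kinetics fitted to a 1:1 binding model.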

[4] = biological target: T3, human mutCALR on BaF3 cells stably expressing human MPL and human mutCALR (MPL-mutCALR cells) (human); assay: flow cytometry, BaF3 MPL-mutCALR cells
T3 construct: also called mutant calreticulin
T3 chain: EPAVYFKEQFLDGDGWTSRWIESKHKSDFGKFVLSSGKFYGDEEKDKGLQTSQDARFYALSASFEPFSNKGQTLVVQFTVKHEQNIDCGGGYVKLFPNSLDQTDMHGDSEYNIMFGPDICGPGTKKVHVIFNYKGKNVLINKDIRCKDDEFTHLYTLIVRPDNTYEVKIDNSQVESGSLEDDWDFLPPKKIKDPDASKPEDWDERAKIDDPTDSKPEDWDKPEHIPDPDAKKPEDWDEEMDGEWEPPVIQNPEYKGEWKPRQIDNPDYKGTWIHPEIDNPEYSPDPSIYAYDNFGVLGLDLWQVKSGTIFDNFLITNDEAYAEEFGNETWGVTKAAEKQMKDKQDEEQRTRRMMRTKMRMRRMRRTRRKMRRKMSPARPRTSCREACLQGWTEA
Method: On the day of the assay, cells were washed and resuspended in assay buffer. Approximately 200,000 cells/well were added to 96-well plates and stained with the indicated concentration of antibodies for 30 minutes on ice. Cells were then washed and stained with goat anti-human secondary conjugated to R-phycoerythrin (R-PE) (Jackson Immuno Research Laboratories) for 30 minutes on ice. The cells were then washed and analyzed by flow cytometry.

Row | Binder | IC50, inhibition of pSTAT5 [1] [µg/mL] | Kd [2] [nM] | koff [2] [s⁻¹] | kon [2] [M⁻¹ s⁻¹] | Kd [3] [nM] | koff [3] [s⁻¹] | kon [3] [M⁻¹ s⁻¹] | EC50 [4] [µg/mL] | MPL-mutCALR AUC [4]
1 | B1 | 7 | – | – | – | – | – | – | – | –
2 | B2 | 10 | – | – | – | – | – | – | – | –
3 | B3 | 3.9 | – | – | – | – | – | – | – | –
4 | B4 | – | 10.2 | 0.00235 | 229000 | 17 | 0.108 | 6.36e+06 | – | –
5 | B5 | 0.47 | – | – | – | – | – | – | 0.01 | 52800
6 | B6 | 0.049 | – | – | – | – | – | – | 0.19 | 66800
7 | B7 | 0.04 | – | – | – | – | – | – | – | 74000
8 | B8 | 0.12 | – | – | – | – | – | – | 0.01 | 60400
9 | B9 | 0.043 | – | – | – | – | – | – | 4.12 | 67400
10 | B10 | 0.03 | – | – | – | – | – | – | 0.09 | 57100
11 | B11 | 0.021 | – | – | – | – | – | – | – | 102000
12 | B12 | – | 2.57 | 0.00153 | 597000 | 0.538 | 0.00123 | 2.29e+06 | – | –
13 | B13 | – | 5.63 | 0.00768 | 1.36e+06 | 1.71 | 0.00314 | 1.84e+06 | – | –
14 | B14 | – | 2.95 | 0.00205 | 695000 | 1.22 | 0.00166 | 1.36e+06 | – | –
